Measurements as given in US20130136736A1 (Ablynx, published 2013).

Legend:
[1] = target: ultra-large von Willebrand factor (ULvWF) (human) (UniProt P04275); test: cell-based or functional assay
[2] = target: A1A2A3 construct, P04275
[3] = target: T1, human von Willebrand Factor (vWF) (human, UniProt P04275 764-2813); test: ELISA: vWF coated on the plate, nanobody titrated from 10 µg/ml in 3-fold steps, detection with mouse anti-myc and anti-mouse-HRP, OD 405 nm
T1 construct: Multimeric plasma protein; The species of the vWF on the BIACORE chip and ELISA plates is not restated there; also called vWF (Red Cross); human vWF

[4] = target: T1, human von Willebrand Factor (vWF); test: ELISA on coated vWF: supernatant of a 200 µg/ml nanobody solution heated for 1 h at RT to 90 °C, dilution series, OD 405 nm
[5] = target: T2, pig vWF (pig, UniProt Q28833 438-2482); test: sandwich ELISA: nanobody (10 µg/ml) captured on coated anti-myc, plasma from a 5-fold dilution in 2-fold steps, detection with polyclonal anti-vWF-HRP, OD 405 nm
T2 construct: Native vWF in plasma

[6] = target: T1, human von Willebrand Factor (vWF); test: ELISA: vWF coated on the plate, nanobody titrated in 3-fold steps, detection with mouse anti-myc and anti-mouse-HRP, OD 405 nm
[7] = target: T1, human von Willebrand Factor (vWF); test: BIACORE (SPR): vWF amine-coupled to a CM5 chip, nanobody injected at 1.3 nM
[8] = target: T1, human von Willebrand Factor (vWF); test: as above; remark: listed apart in the source
[9] = target: T1, human von Willebrand Factor (vWF); test: ELISA: vWF coated on the plate, nanobody titrated in 3-fold steps, detection with mouse anti-myc and anti-mouse-HRP, OD 405 nm; remark: listed apart in the source

Q: With “ADAMTS-13 (from UniProt Q76LX8 75-1427) (enzyme)” as the molecule, how does the cleavage of ULvWF platelet strings on perfusion of pooled normal plasma containing ADAMTS-13 [1] read?
A: > 95%

Q: And the cleavage of ULvWF platelet strings on perfusion of pooled normal plasma containing ADAMTS-13 and ALX-0081 (10 µg/ml) [1]?
A: 95%

B1: ADAMTS-13 (protein)
chain: AAGGILHLELLVAVGPDVFQAHQEDTERYVLTNLNIGAELLRDPSLGAQFRVHLVKMVILTEPEGAPNITANLTSSLLSVCGWSQTINPEDDTDPGHADLVLYITRFDLELPDGNRQVRGVTQLGGACSPTWSCLITEDTGFDLGVTIAHEIGHSFGLEHDGAPGSGCGPSGHVMASDGAAPRAGLAWSPCSRRQLLSLLSAGRARCVWDPPRPQPGSAGHPPDAQPGLYYSANEQCRVAFGPKAVACTFAREHLDMCQALSCHTDPLDQSSCSRLLVPLLDGTECGVEKWCSKGRCRSLVELTPIAAVHGRWSSWGPRSPCSRSCGGGVVTRRRQCNNPRPAFGGRACVGADLQAEMCNTQACEKTQLEFMSQQCARTDGQPLRSSPGGASFYHWGAAVPHSQGDALCRHMCRAIGESFIMKRGDSFLDGTRCMPSGPREDGTLSLCVSGSCRTFGCDGRMDSQQVWDRCQVCGGDNSTCSPRKGSFTAGRAREYVTFLTVTPNLTSVYIANHRPLFTHLAVRIGGRYVVAGKMSISPNTTYPSLLEDGRVEYRVALTEDRLPRLEEIRIWGPLQEDADIQVYRRYGEEYGNLTRPDITFTYFQPKPRQAWVWAAVRGPCSVSCGAGLRWVNYSCLDQARKELVETVQCQGSQQPPAWPEACVLEPCPPYWAVGDFGPCSASCGGGLRERPVRCVEAQGSLLKTLPPARCRAGAQQPAVALETCNPQPCPARWEVSEPSSCTSAGGAGLALENETCVPGADGLEAPVTEGPGSVDEKLPAPEPCVGMSCPPGWGHLDATSAGEKAPSPWGSIRTGAQAAHVWTPAAGSCSVSCGRGLMELRFLCMDSALRVPVQEELCGLASKPGSRREVCQAVPCPARWQYKLAACSVSCGRGVVRRILYCARAHGEDDGEEILLDTQCQGLPRPEPQEACSLEPCPPRWKVMSLGPCSASCGLGTARRSVACVQLDQGQDVEVDEAACAALVRPEASVPCLIADCTYRWHVGTWMECSVSCGDGIQRRRDTCLGPQAQAPVPADFCQHLPKPVTVRGCWAGPCVGQGTPSLVPHEEAAAPGRTTATPAGASLEWSQARGLLFSPAPQPRRLLPGPQENSVQSSACGRQHLEPTGTIDMRGPGQADCAVAIGRPLGEVVTLRVLESSLNCSAGDMLLLWGRLTWRKMCRKLLDMTFSSKTNTLVVRQRCGRPGGGVLLRYGSQLAPETFYRECDMQLFGPWGEIVSPSLSPATSNAGGCRLFINVAPHARIAIHALATNMGAGTEGANASYILIRDTHSLRTTAFHGQQVLYWESESSQAEMEFSEGFLKAQASLRGQYWTLQSWVPEMQDPQSWKGKEGT
Q: How did the “proteolytic cleavage of the A1-A2-A3 fragment by normal pool plasma (Western blot)” value [2] turn out when B1 was run?
A: resulting in proteolytic cleavage of the fragment

B2: 14F8 (VHH)
VHH: AVQLVESGGGLVQAGESLRLSCTSSGRAFSYYNTGWFRQAPGKEREFVAAISWSGGLTYYADSVKGRFTISRDNAKDMVYLQMASLKPEDTAVYYCAANRRQKTVQMGERAYDYWGQGTQVTVSS
notes: Monovalent llama Nanobody; TALON-purified and detected with anti-myc, so tagged (myc/His)
Q: How did the “EC50 (read off the curve)” value [3] turn out when B2 was run?
A: ~0.02 µg/mL

B3: 12B1 (VHH)
VHH: QVQLVESGGGLVQAGGSLRLSCAASGRTFSNYGMGWFRQAPGKEREFVTSISWSGTYTAYSDNVKGRFTISRDNAKNTVYLQMDSLKPEDTAVYYCAAQSRYRSNYYDHDDKYAYWGQGTQVTVSS
notes: as for B2
Q: For B3, which “EC50 (read off the curve)” value [3] is on record?
A: ~0.02 µg/mL

B4: 12E3 (VHH)
VHH: EVQLVESGGGLVQAGGSLRLSCAASGRTFNNYGMGWFRQAPGKEREFVTSISWSGSYTAYADNVKGRFTISRDNAKNTVYLQMDSLKPGDTAVYYCAAQSRYSSNYYDHDDKYAYWGQGTQVTVSS
notes: as for B2
Q: Does B4 bind [3]?
A: binds

B5: 12A2H1 (VHH)
VHH: EVQLVESGGGLVQPGGSLRLSCAASGRTFSYNPMGWFRQAPGKGRELVAAISRTGGSTYYPDSVEGRFTISRDNAKRMVYLQMNSLRAEDTAVYYCAAAGVRAEDGRVRTLPSEYTFWGQGTQVTVSS
notes: Humanised 12A2, monovalent
Q: Does B5 bind [4]?
A: binds

B6: 12A2 (VHH)
VHH: QVKLEESGGGLVQAGGALRLSCAASGRTFSYNPMGWFRQAPGKERDLVAAISRTGGSTYYPDSVEGRFTISRDNAKRMVYLQMNNLKPEDTAVYYCAAAGVRAEDGRVRTLPSEYTFWGQGTQVTVSS
notes: 12B6 homologue, monovalent Nanobody
Q: Does B6 bind [5]?
A: binds

B7: 12B6 (VHH)
VHH: QVQLVESGGGLVQAGGALRLSCAASGRTFSYNPMGWFRQAPGKERDVVAAISRTGGSTYYARSVEGRFTISRDNAKRMVYLQMNALKPEDTAVYYCAAAGVRAEDGRVRTLPSEYNFWGQGTQVTVSS
notes: as for B2
Q: Which “EC50 (read off the curve)” value [3] does the source give for B7 here?
A: ~0.02 µg/mL

B8: 12B6H1 (VHH)
VHH: EVQLVESGGGLVQPGGSLRLSCAASGRTFSYNPMGWFRQAPGKGRDVVAAISRTGGSTYYARSVEGRFTISRDNAKRMVYLQMNSLRAEDTAVYYCAAAGVRAEDGRVRTLPSEYNFWGQGTQVTVSS
notes: Humanised 12B6, monovalent
Q: For B8, which “EC50 (read off the curve)” value [6] is on record?
A: ~0.02 µg/mL

B9: 12B6H2 (VHH)
VHH: EVQLVESGGGLVQPGGSLRLSCAASGRTFSYNPMGWFRQAPGKGREVVAAISRTGGSTYYARSVEGRFTISRDNAKRMVYLQMNSLRAEDTAVYYCAAAGVRAEDGRVRTLPSEYNFWGQGTQVTVSS
notes: Humanised 12B6, monovalent
Q: With B9 as the molecule, how does the “EC50 (read off the curve)” value [6] read?
A: ~0.01 µg/mL

B10: 12B6-3a-12B6 (VHH)
chain: QVQLVESGGGLVQAGGALRLSCAASGRTFSYNPMGWFRQAPGKERDVVAAISRTGGSTYYARSVEGRFTISRDNAKRMVYLQMNALKPEDTAVYYCAAAGVRAEDGRVRTLPSEYNFWGQGTQVTVSSAAAEVQLVESGGGLVQAGGALRLSCAASGRTFSYNPMGWFRQAPGKERDVVAAISRTGGSTYYARSVEGRFTISRDNAKRMVYLQMNALKPEDTAVYYCAAAGVRAEDGRVRTLPSEYNFWGQGTQVTVSS
notes: also called bivalent 12B6
Q: Does B10 bind [7]?
A: binds

B11: 12A2-3a-12A2 (VHH)
chain: QVKLEESGGGLVQAGGALRLSCAASGRTFSYNPMGWFRQAPGKERDLVAAISRTGGSTYYPDSVEGRFTISRDNAKRMVYLQMNNLKPEDTAVYYCAAAGVRAEDGRVRTLPSEYTFWGQGTQVTVSSAAAEVQLVESGGGLVQAGGALRLSCAASGRTFSYNPMGWFRQAPGKERDLVAAISRTGGSTYYPDSVEGRFTISRDNAKRMVYLQMNNLKPEDTAVYYCAAAGVRAEDGRVRTLPSEYTFWGQGTQVTVSS
notes: also called bivalent 12A2
Q: Does B11 bind [8]?
A: binds

B12: 12B6-GS9-12B6 (VHH)
chain: QVQLVESGGGLVQAGGALRLSCAASGRTFSYNPMGWFRQAPGKERDVVAAISRTGGSTYYARSVEGRFTISRDNAKRMVYLQMNALKPEDTAVYYCAAAGVRAEDGRVRTLPSEYNFWGQGTQVTVSSGGGGSGGGSEVQLVESGGGLVQAGGALRLSCAASGRTFSYNPMGWFRQAPGKERDVVAAISRTGGSTYYARSVEGRFTISRDNAKRMVYLQMNALKPEDTAVYYCAAAGVRAEDGRVRTLPSEYNFWGQGTQVTVSS
notes: also called bivalent 12B6
Q: Does B12 bind [7]?
A: binds

B13: 12A2-GS9-12A2 (VHH)
chain: QVKLEESGGGLVQAGGALRLSCAASGRTFSYNPMGWFRQAPGKERDLVAAISRTGGSTYYPDSVEGRFTISRDNAKRMVYLQMNNLKPEDTAVYYCAAAGVRAEDGRVRTLPSEYTFWGQGTQVTVSSGGGGSGGGSEVQLVESGGGLVQAGGALRLSCAASGRTFSYNPMGWFRQAPGKERDLVAAISRTGGSTYYPDSVEGRFTISRDNAKRMVYLQMNNLKPEDTAVYYCAAAGVRAEDGRVRTLPSEYTFWGQGTQVTVSS
notes: also called bivalent 12A2
Q: Does B13 bind [8]?
A: binds

B14: 12B6-GS30-12B6 (VHH)
chain: QVQLVESGGGLVQAGGALRLSCAASGRTFSYNPMGWFRQAPGKERDVVAAISRTGGSTYYARSVEGRFTISRDNAKRMVYLQMNALKPEDTAVYYCAAAGVRAEDGRVRTLPSEYNFWGQGTQVTVSSGGGGSGGGGSGGGGSGGGGSGGGGSGGGGSEVQLVESGGGLVQAGGALRLSCAASGRTFSYNPMGWFRQAPGKERDVVAAISRTGGSTYYARSVEGRFTISRDNAKRMVYLQMNALKPEDTAVYYCAAAGVRAEDGRVRTLPSEYNFWGQGTQVTVSS
notes: also called bivalent 12B6
Q: Does B14 bind [7]?
A: binds

B15: 12C9 (VHH)
VHH: AVQLVESGGGLVQPGGSLKLSCATSGSIFSSSAMAWYRQASGKQRELVATITSGGRTSYADSVKGRFTISRDNAKNTVYLQMNSLKPEDTAVYDCNFVVDGKRAPWGQGTQVTVSS
notes: as for B2
Q: Does B15 bind [3]?
A: binds

B16: 12A5H1 (VHH)
VHH: EVQLVESGGGLVQPGGSLRLSCAASGRIFSIGAMGMYRQAPGKGRELVATITSGGSTNYADPVKGRFTISRDGPKNTVYLQMNSLRAEDTAVYYCYANLKQGSYGYRFNDYWGQGTQVTVSS
notes: Humanised 12A5, monovalent; TALON-purified, so His-tagged
Q: For B16, which “EC50 (read off the curve)” value [9] is on record?
A: ~0.005 µg/mL

B17: 12A5H2 (VHH)
VHH: EVQLVESGGGLVQPGGSLRLSCAASGRIFSIGAMGMYRQAPGKGRELVATITSGGSTNYADPVKGRFTISRDGAKNTVYLQMNSLRAEDTAVYYCYANLKQGSYGYRFNDYWGQGTQVTVSS
notes: as for B16
Q: With B17 as the molecule, how does the “EC50 (read off the curve)” value [9] read?
A: ~0.03 µg/mL

B18: 12D11 (VHH)
VHH: AVQLVDSGGGLVQAGGSLRLSCTASERTTFSSYTLGWFRQAPGKEREFVGGISWSGVSTDYAEFAKGRFTISRDHAANTVYLEMNSLKPEDTAVYYCAALGRYRSNWRNIGQYDYWGQGTQVTVSS
notes: as for B2
Q: Does B18 bind [3]?
A: binds
